According to publication PMC4829898:

Biological target: recombinant soluble tetrameric neuraminidase (tetNA) (Staphylothermus marinus | influenza A virus A/Belgium/2009 (H1N1, 2009 pandemic))
Assay: SEC

“recombinant soluble tetrameric neuraminidase (tetNA) (enzyme)” gave a stoichiometry N of 4.
